Assay results reported in paper PMC7990167, “An antibody targeting type III secretion system induces broad protection against Salmonella and Shigella infections” (PLoS Neglected Tropical Diseases, 2021).
Several values for one entry are separate records, joined by “and”; a condition that tells them apart may be missing. Equal entries are not always repeated.

Target: T1, IpaD (wild type, Shigella flexneri) expressed on the surface of yeast cells (Shigella flexneri, gene synthesized …, UniProt P18013)
T1 construct: IpaD of Shigella flexneri; also called wild-type IpaD; needle tip protein of the Shigella type III secretion system
T1 sequence (P18013 whole entry): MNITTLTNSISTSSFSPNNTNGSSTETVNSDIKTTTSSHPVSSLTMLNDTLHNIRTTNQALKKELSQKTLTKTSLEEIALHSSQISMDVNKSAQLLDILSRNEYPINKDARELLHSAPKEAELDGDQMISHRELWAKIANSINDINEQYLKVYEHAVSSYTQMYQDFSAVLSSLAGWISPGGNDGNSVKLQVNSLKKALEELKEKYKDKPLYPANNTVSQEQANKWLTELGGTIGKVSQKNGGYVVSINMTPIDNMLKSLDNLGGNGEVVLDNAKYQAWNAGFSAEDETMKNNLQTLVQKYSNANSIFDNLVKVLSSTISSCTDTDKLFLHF
Assay: flow cytometry on cells; wild-type IpaD on the surface of yeast cells, increasing concentrations of the VHH, fluorescence by FACS; apparent KD, one site-specific binding model (PRISM)
Conditions: one partner purified

B1: VHH-20ipaD (VHH)
VHH: QVQLVESGGGLVQAGGSLRLSCAVSGLEMQSHAIGWFRQAPGKEREGVSCINDDGSTTRYADSVKGRFTISRDNAKNTVYLQMNSLKPEDTAVYFCAAKSVWFCSVIRSHEFNSWGQGTQVTVSS
notes: the VHH chain is in the complex IpaD/VHH-20ipaD, PDB 5VXM; Monomeric fractions of the gel filtration were pooled; source: E. coli BL21, purified (TEV cleavage, HisTrap flow-through, gel filtration)
Kd: 1.16 nM and 1.15 nM
